The target of this experiment is BG505 UFO trimer (HIV-1 strain BG505, UniProt Q2N0S6, stabilised). Description: BLI. Background: BLI is a label-free optical method that tracks binding on a fibre tip over time.

B1: intermediate antibody IA5 of the J038 lineage (antibody, V domains shown)
VH: QLRLQESGPGLVKPSETLSLNCAVSGGSISDAYWSWIRQSPGRGLEWIGRISGRDGYTDYNPSLTSRVTISTDRSKTQVSLRLTSVTAADTAVYFCAREVAEDDYGYYQPYFDSWGQGVLVTVSS
VL: DIQMTQSPSSVSASVGDRVTITCRSSQGIDTDLAWYQHTPGKAPKLLIYHSCGLQSGVPSRFSGSGSGTDFTLTISSLQPEDFATYYCQQYKSLPLTFGGGTKVEVK
On to B1, for which the binding result is on record as “binds”.

The values are drawn from paper doi:10.1101/2021.08.07.455519 (bioRxiv, 2021).
